Reference: patent publication US6992063 (TRUSTEES OF PRINCETON UNIVERSITY, dated 2006)
One block for each binder: values may come before it.

B1: XIAP-BIR3 (residues 238-358) (other, mammalian, UniProt P98170 238-358, looked up)
chain: RSESDAVSSDRNFPNSTNLPRNPSMADYEARIFTFGTWIYSVNKEQLARAGFYALGEGDKVKCFHCGGGLTDWKPSEDPWEQHAKWYPGCKYLLEQKGQEYINNIHLTHSLEECLVRTTEK
notes: Overexpressed as a GST fusion (pGEX-2T) and purified as in Chai et al. 2000; also called BIR3 domain of XIAP; third BIR domain of XIAP

Tests used:
[1] = target: T1, Smac (Phe33Asp, residues 1-162), monomeric mutant (human, UniProt Q9NR28 56-217, A selenomethionyl form (Met replaced by Se-Met) was used only for phasing. The native crystals hold the plain protein.); assay: reconstituted binary complex, in solution and co-crystallised
T1 construct: Residues 1-162 and position 33 count on mature Smac, not on the precursor entry; Expressed in E. coli from pET-3d for crystallisation; a selenomethionyl form was used for phasing; also called mutant Smac protein; monomeric Smac protein
T1 sequence: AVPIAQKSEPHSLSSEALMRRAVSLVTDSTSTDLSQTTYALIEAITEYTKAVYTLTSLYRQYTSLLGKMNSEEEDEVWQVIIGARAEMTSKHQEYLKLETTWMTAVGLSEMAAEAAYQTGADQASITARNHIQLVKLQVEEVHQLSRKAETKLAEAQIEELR
Method: Crystallization and data collection. […] At 23° C., the reservoir contained 100 mM citrate buffer, pH 5.5, 5% PEG 4000, and 10% isopropanol. Crystals appeared after 1–4 days and reached a maximum size over a period of 1–3 weeks. Both crystals are in the triclinic space group P1 and contain two complexes in each unit cell. […] Diffraction data were primarily collected using an R-AXIS-IV imaging plate detector mounted on a Rigaku 200HB generator. Derivatives were obtained by soaking crystals in reservoir buffer containing 20% glycerol (v/v) and heavy atoms. The concentration and soaking time for mercury thimerosal were 1 mM and 20 hours, respectively. To collect data at −170° C., crystals were equilibrated in a cryoprotectant buffer containing reservoir buffer plus 20% glycerol (v/v) and were flash frozen in a cold nitrogen stream. The high-resolution native data were collected at the NSLS beamline X4A.

[2] = target: B1; assay: isothermal titration calorimetry
[3] = target: T2, DIAP1-BIR2 (residues 201-325) (Drosophila, UniProt Q24306 201-325); assay: gel filtration and mass spectroscopic analyses (data not shown)
T2 construct: range 201-325; Expressed as a GST fusion; the GST moiety was removed by thrombin cleavage; also called BIR2 domain of DIAP1; DIAP-BIR2
T2 sequence (looked up): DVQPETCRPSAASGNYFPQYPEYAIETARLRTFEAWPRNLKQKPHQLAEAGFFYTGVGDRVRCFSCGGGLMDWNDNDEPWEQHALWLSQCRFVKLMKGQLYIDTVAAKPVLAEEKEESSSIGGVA
Method: (§1) In vitro interaction assay. […] The mixture was fractionated by gel filtration chromatography (Superdex-200, Pharmacia). The protein-containing fractions were analyzed by reverse phase HPLC and mass spectroscopy for detection of the bound peptide.
Rationale and structure determination.

[4] = target: T3, DIAP1-BIR1 (residues 1-145) (Drosophila, UniProt Q24306 1-145); assay: gel filtration of BIR domain with excess peptide, then reverse phase HPLC and mass spectroscopy
T3 construct: range 1-145; Expressed as a GST fusion; the GST moiety was removed by thrombin cleavage; also called BIR1 domain of DIAP1
T3 sequence (looked up): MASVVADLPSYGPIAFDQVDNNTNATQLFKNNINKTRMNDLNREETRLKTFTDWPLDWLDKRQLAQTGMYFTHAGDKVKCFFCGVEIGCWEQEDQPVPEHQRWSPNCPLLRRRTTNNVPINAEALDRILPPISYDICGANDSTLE
Method: as §1

[5] = target: T2, DIAP1-BIR2 (residues 201-325); assay: isothermal titration calorimetry, 23 °C
Method: Isothermal microcalorimetry titration. All proteins and peptides was prepared in 50 mM sodium phosphate buffer, pH 7.5. The Micro Calorimetry System (Microcal, Amherst, Mass.) was used to perform the ITC measurements for the interaction between DIAP1-BIR2 and various synthetic peptides. The titration data, collected at 23° C., were analyzed using the ORIGIN data analysis software (Microcal Software, Northampton, Mass.).

[6] = target: T4, XIAP-BIR3 (residues 238-358), P98170
T4 chain: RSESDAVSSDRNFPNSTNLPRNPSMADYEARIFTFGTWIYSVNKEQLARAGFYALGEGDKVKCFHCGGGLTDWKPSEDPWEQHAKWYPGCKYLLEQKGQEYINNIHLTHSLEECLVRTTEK

Binder: B1
binding result [1]: binds

binding result [2]: binds | binding result [3]: binds | binding result [4]: no binding
Binder: AIAYFIPDQA [10-residue Grim peptide (N-terminal peptide of Grim)]

fold difference in binding affinity between the Hid and Grim peptides [2]: ~100 fold | fold higher binding affinity than the Grim peptide [5]: 6 fold | binding result [4]: no binding
Binder: AVPFYLPEGG [10-residue Hid peptide (N-terminal peptide of Hid)]

B2: caspase-9 (protein)
chain: MDEADRRLLRRCRLRLVEELQVDQLWDALLSRELFRPHMIEDIQRAGSGSRRDQARQLIIDLETRGSQALPLFISCLEDTGQDMLASFLRTNRQAAKLSKPTLENLTPVVLRPEIRKPEVLRPETPRPVDIGSGGFGDVGALESLRGNADLAYILSMEPCGHCLIINNVNFCRESGLRTRTGSNIDCEKLRRRFSSLHFMVEVKGDLTAKKMVLALLELAQQDHGALDCCVVVILSHGCQASHLQFPGAVYGTDGCPVSVEKIVNIFNGTSCPSLGGKPKLFFIQACGGEQKDHGFEVASTSPEDESPGSNPEPDATPFQEGLRTFDQLDAISSLPTPSDIFVSYSTFPGFVSWRDPKSGSWYVETLDDIFEQWAHSEDLQSLLLRVANAVSVKGIYKQMPGCFNFLRKKLFFKTS
caspase-9 activity (cleavage of Ac-LEHD-AFC), direct assay [6]: the inhibition of caspase-9 by the BIR3 domain of XIAP
